T1: TNFR1-Fc fusion protein (UniProt P19438 29-197)
T1 construct: range 29-197; Coated antigen in ELISA; not shown: Fc part of the fusion, not described
T1 sequence (looked up): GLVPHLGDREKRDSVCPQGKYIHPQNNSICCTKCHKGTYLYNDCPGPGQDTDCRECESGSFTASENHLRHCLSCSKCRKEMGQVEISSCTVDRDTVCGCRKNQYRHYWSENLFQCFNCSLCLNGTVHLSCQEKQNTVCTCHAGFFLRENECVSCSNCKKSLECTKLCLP

T2: TNFR2 (on Kym-1 cells) (UniProt P20333 23-461, limits assumed)
T2 sequence (looked up): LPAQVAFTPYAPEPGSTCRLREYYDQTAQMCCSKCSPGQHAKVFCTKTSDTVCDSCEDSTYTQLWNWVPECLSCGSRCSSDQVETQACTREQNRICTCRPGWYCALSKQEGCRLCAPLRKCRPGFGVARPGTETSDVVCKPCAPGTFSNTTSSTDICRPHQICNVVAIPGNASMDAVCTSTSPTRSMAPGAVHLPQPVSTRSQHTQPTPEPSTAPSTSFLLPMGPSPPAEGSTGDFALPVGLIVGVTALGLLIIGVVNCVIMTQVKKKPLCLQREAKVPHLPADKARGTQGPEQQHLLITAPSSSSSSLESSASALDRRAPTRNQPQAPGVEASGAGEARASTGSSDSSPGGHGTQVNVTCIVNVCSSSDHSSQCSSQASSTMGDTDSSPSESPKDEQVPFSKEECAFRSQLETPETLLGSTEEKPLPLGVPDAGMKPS

T3: TNFR2-Fc (Enbrel) fusion protein (UniProt P20333 23-257)
T3 construct: extracellular domain; Commercial product (Enbrel) used as coated antigen
T3 sequence (looked up): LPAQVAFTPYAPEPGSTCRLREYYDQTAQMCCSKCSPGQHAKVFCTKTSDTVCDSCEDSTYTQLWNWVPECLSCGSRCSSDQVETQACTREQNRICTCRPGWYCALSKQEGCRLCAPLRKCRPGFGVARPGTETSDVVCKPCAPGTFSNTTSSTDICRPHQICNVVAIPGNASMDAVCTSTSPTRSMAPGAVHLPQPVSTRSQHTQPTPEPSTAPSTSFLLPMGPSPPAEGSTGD


Tests used:
TNFR1-Fc fusion protein = molecular target: T1, TNFR1-Fc fusion protein; assay: ELISA, coated TNFR1-Fc, anti-human Fab-HRP
TNFR2 (on Kym-1 cells) = molecular target: T2, TNFR2 (on Kym-1 cells); assay: cell-based or functional assay
[1] = molecular target: T3, TNFR2-Fc (Enbrel) fusion protein; assay: ELISA, coated TNFR2-Fc (Enbrel), anti-human Fab-HRP
HER3-His = molecular target: T4, HER3-His (UniProt P21860 21-643); assay: simultaneous binding ELISA: coated EGFR-Fc, Db titrated, HER3-His 300 nM added, anti-His-HRP
T4 construct: range 21-643; also called His-tagged HER3; second antigen

HER3 (on tumor cells) = molecular target: T5, HER3 (on tumor cells) (UniProt P21860 20-1342, limits assumed); assay: flow cytometry on HER3-positive MCF-7 cells
T5 construct: whole, on cells; also called HER3 on MCF-7, SKBR-3 (SKBR3) and FaDu cells

EGFR-Fc fusion protein = molecular target: T6, EGFR-Fc fusion protein (UniProt P00533 25-645); assay: ELISA, coated EGFR-Fc, anti-human Fab-HRP
T6 construct: range 25-645; Coated antigen in ELISA; not shown: Fc part of the fusion, not described

HER3-Fc fusion protein = molecular target: T7, HER3-Fc fusion protein (UniProt P21860 21-643); assay: ELISA, coated HER3-Fc, anti-human Fab-HRP
T7 construct: range 21-643; Coated antigen in ELISA; not shown: Fc part of the fusion, not described

binding result (TNFR1-Fc fusion protein) | fold increase of bioactivity against the bivalent antibody (TNFR2 (on Kym-1 cells)) [fold] | EC50 [1] [nM] | EC50 (HER3-His) [nM] | EC50 (HER3 (on tumor cells)) [nM] | EC50 (EGFR-Fc fusion protein) [nM] | EC50 (HER3-Fc fusion protein) [nM] | Binder | EC50 of cell death induction, Kym-1 cells, MTT assay after 24 hours (TNFR2 (on Kym-1 cells)) [nM]
no binding | ~500 | 0.7 |  |  |  |  | DbTNFR2xTNFR2-Ig (antibody, human IgG1, kappa, variable domains originate from IgG15) heavy: QVQLQQSGAEVKKPGSAVKVSCKASGGTFSSYAISWVRQAPGQGLEWMGRIIPILGIANYAQKFQGRVTITADKSTSTAYMELSSLRSEDTAVYYCARDGLGDAFDIWGQGTMVTVSSGGGGSQSALTQPRSVSGSPGQSITISCTGTSSDVGGYNYVSWYQQHPGKAPKLMIYDVSNRPSGVSNRFSGSKSGNTASLTISGLQAEDEADYYCSSYTSSSTLVVFGGGTKLTVLASTKGPSVFPLAPSSKSTSGGTAALGCLVKDYFPEPVTVSWNSGALTSGVHTFPAVLQSSGLYSLSSVVTVPSSSLGTQTYICNVNHKPSNTKVDKKVEPKSCDKTHTCPPCPAPPVAGPSVFLFPPKPKDTLMISRTPEVTCVVVDVSHEDPEVKFNWYVDGVEVHNAKTKPREEQYNSTYRVVSVLTVLHQDWLNGKEYKCKVSNKGLPSSIEKTISKAKGQPREPQVYTLPPSRDELTKNQVSLTCLVKGFYPSDIAVEWESNGQPENNYKTTPPVLDSDGSFFLYSKLTVDKSRWQQGNVFSCSVMHEALHNHYTQKSLSLSPGK light: QVQLQQSGAEVKKPGSAVKVSCKASGGTFSSYAISWVRQAPGQGLEWMGRIIPILGIANYAQKFQGRVTITADKSTSTAYMELSSLRSEDTAVYYCARDGLGDAFDIWGQGTMVTVSSGGGGSQSALTQPRSVSGSPGQSITISCTGTSSDVGGYNYVSWYQQHPGKAPKLMIYDVSNRPSGVSNRFSGSKSGNTASLTISGLQAEDEADYYCSSYTSSSTLVVFGGGTKLTVLRTVAAPSVFIFPPSDEQLKSGTASVVCLLNNFYPREAKVQWKVDNALQSGNSQESVTEQDSKDSTYSLSSTLTLSKADYEKHKVYACEVTHQGLSSPVTKSFNRGEC | ~0.056
 |  |  | 1.3 | 1.54 | 0.48 | 1.4 | Db3M6xhu225-Ig (bispecific antibody, human IgG1, kappa, also called bispecific, tetravalent Diabody-Ig targeting EGFR (hu225) and HER3 (3M6); DbEGFRxHER3-Ig) heavy: EVQLVESGGGLVQPGGSLRLSCAASGFSLTNYGVHWVRQAPGKGLEWLGVIWSGGNTDYNTPFTSRFTISRDNSKNTLYLQMNSLRAEDTAVYYCARALTYYDYEFAYWGQGTTVTVSSGGGGSQSALTQPASVSGSPGQSITISCTGTSSDVGSYNVVSWYQQHPGKAPKLIIYEVSQRPSGVSNRFSGSKSGNTASLTISGLQTEDEADYYCSSYAGSSIFVIFGGGTKVTVLASTKGPSVFPLAPSSKSTSGGTAALGCLVKDYFPEPVTVSWNSGALTSGVHTFPAVLQSSGLYSLSSVVTVPSSSLGTQTYICNVNHKPSNTKVDKKVEPKSCDKTHTCPPCPAPPVAGPSVFLFPPKPKDTLMISRTPEVTCVVVDVSHEDPEVKFNWYVDGVEVHNAKTKPREEQYNSTYRVVSVLTVLHQDWLNGKEYKCKVSNKGLPSSIEKTISKAKGQPREPQVYTLPPSRDELTKNQVSLTCLVKGFYPSDIAVEWESNGQPENNYKTTPPVLDSDGSFFLYSKLTVDKSRWQQGNVFSCSVMHEALHNHYTQKSLSLSPGK light: EVQLLESGGGLVQPGGSLRLSCAASGFTFSHYVMAWVRQAPGKGLEWVSSISSSGGWTLYADSVKGRFTISRDNSKNTLYLQMNSLRAEDTAVYYCTRGLKMATIFDYWGQGTLVTVSSGGGGSDIQLTQSPSFLSASVGDRVTITCRASQSIGTNIHWYQQKPGKAPKLLIKYASESISGVPSRFSGSGSGTEFTLTISSLQPEDFATYYCQQNNNWPTTFGAGTKLEIKRTVAAPSVFIFPPSDEQLKSGTASVVCLLNNFYPREAKVQWKVDNALQSGNSQESVTEQDSKDSTYSLSSTLTLSKADYEKHKVYACEVTHQGLSSPVTKSFNRGEC | 
